Measurements: the RNAGym collection of RNA variant scans (doi:10.1073/pnas.2313332121)

B1: TPR t1 (parent)
chain: GACCAAUCUGCCCUCAGAGCUCGAGAACAUCUUCGGAUGCAGAGGAGGCAGGCUUCGGUGGCGCGAUAGCGCCAACGUCCUCAACCUCCAAUGCAUCCCACCACAUGAUGAUGCCUGAAGAGCCUUGGUUUUUUG

Variants of: B1
Test: polymerase ribozyme fitness, log enrichment relative to wild type (log ratio); higher = more active; in vitro selection for triplet polymerase activity
In short: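 The heterodimeric triplet polymerase ribozyme's subunits were each mutagenized into PCR-built libraries and transcribed. Every library was selected once, in triplicate, by annealing with a biotinylated primer, the partner subunit and triplets, incubating frozen at −7 °C, gel-excising extended constructs, capturing on streptavidin beads and running RT-PCR. Input and output libraries were Illumina-sequenced, with genotypes kept only at ≥10 input reads and ≥1 read per output. Fitness, from inverse-variance-weighted replicate averages, is the base-2 logarithm of genotype enrichment over wild-type enrichment.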

Variant	polymerase ribozyme fitness (log ratio)
GACCAAUCUGCCCUCGGAGCUCGAGAACAUCUUCGGAUGCAGAGGAGGCAGGGUUCGAUGGCGCGAUAGCGCCAACGUCCUCAACCUCCACUGCAUCCCACCACAUGAUGAUGCCUGAUGAGCCUUGGUUUUUUG [A16G C53G G58A A91C A119U]	-4.1
GACCAAUCUGCCCUCAGAGCUCGAGAACAUCUUCGGAUGCAGAGGAGGCAGGCUUCGGUGGCGCGAUAGCGCCAACGUCCUCAACCUCGAAUGCAUCCCACCAUAUGAUGAUGCCUGAAGAGCCUUGGUUUUUUG [C89G C104U]	-0.672
GACCAAUCUGCCCUCCGAGCUCGAGAACAUCUUCGGAUGCAGAGGAGGCAGGCUUCGGUGGCGCGAUAGCGCCAACGUCCUCAACCUCCAAUGCAUCCCACCACAUGAAGAUGCCGGAAGAGCCUUGGUUUUUUG [A16C U109A U116G]	-6.51
GACCAAUAUGCCCUCAGAGCUCGAGAACAUCUUCGGAUGCAGAGGAGGCAGGAUUCGGUGGCGCGAUAGCGCCAACGUCCUAAACCUCCAAUGCAUCCCACCACAUGUUGAUGCCUGAAGAGCCUUGGUUUUUUG [C8A C53A C82A A108U]	-5.69
GACCAAUCUGCCCUCAGAGCUCGAGAACAUCUUCCGAUGCAGAGGAGGAAGGCUUCGGUGGCGCGAUAGCGCCAACGUCCUCAACCUCCAAUGCAUCCCACCACAUGAUGAGGCCUGAAGAGCCUUGGUUUUUUG [G35C C49A U112G]	-6.16
GACUAAUCUUCCCUCAGAGCUCGAGAACAUCUUCGGAUGCAGAGGAGGCAGGCUUCGGUGGCGCGAUAGGGCCAACGUCCUCAACCUCCAAUGCAUCCCACCACAUGAUGAUGCCUGAAGAGCCUUGGUUUUUUG [C4U G10U C70G]	-4.35
GACCACUCUGCCCUCAGAGCUCGAGAACAUCUUCGGAUGCAGAGGAGGCAGGCUUCGGUGGCGCGAUAGCGUCAACGUCCUCAACCUCCAAUGCAUCCCACCACAUGAUGAUGCCUGAAUAGCCUUGGUUUUAUG [A6C C72U G120U U133A]	-0.162
GACCAAUCUGCCCUCAGAGCUCGAGAACAUCUUCGGAUGAAGAGGAGGCAGGCUUCGGUAGCGCGAUAGCGCCAACGUCCACAACCUCCAAUGCAUCCCACCACAUGAUGAUGCCUGAAGAGCCUUGGUUUUUUG [C40A G60A U81A]	-2.66
GACCAAUCUGCCCACAGUGCUCGAGAACAUCUUCGGAUGCAGAGGAGGCAGGCUUCGGUCGCGCGAUAGCGCCAACGUCCUCAACCUCCAAUGCAUCCCACCACAUGAUGAUGCCUGAAGAGCCUUGGUUUUUUG [U14A A18U G60C]	-4.66
GACCAAUCUGCCCUCAGAGCUCGAGAACAUCUUCGGAUGCAGAGGAGGCAGGCUUCGGUGGCGCGAUAGCGCCAGCGUCCUCAACCACCAAUGCAUCCCACCACAUGAUGAUGCCUGAAGAGCCUUGGUUUUUUG [A75G U87A]	-0.246
GACCAAUCUGCCCUCAGUGCUCGAGAACAUCUUCGGAUGCAGAGGAGGCAGGCUUCGGUGGCGUGAUAGCGGCAACGUCCUCAACCUCCAAUGCAUCCCACCACAUGAUGAUGCCUGAAGGGCCUUGGUUUUUUG [A18U C64U C72G A121G]	-0.335
GCCCAAUCUGCCCUCAAAGCUCGAGAACAUCUUCGGAUGCAGACAAGGCAGGCUUCGGUGGCGCGAUAGCGCCAACGUCCUCAACUUCCAAUGCAUCCCACCACAUGAAGAUGCCUGAAGAGCCUUGGUUCUUUG [A2C G17A G44C G45A C86U U109A U131C]	-7.35
GACCAAUCAGCCCUCAGAGCUCGAGAACAUCUUCGGAUGCAGAGGAGGCAGACUUCGGUGGCGCCAUAGCGCCAACGUCCUCAACCUCCAAUGCAUCCCACCACAUGAUGAUGCCUGAAGAGCCUCGGUUUUUUG [U9A G52A G65C U126C]	-5.92
GACCAAUCUGCGCUCAGAGCUCGAGAACAUCUUCGGAUGCAGAGGAGGCAGGCUUCGGUGGCGCGAUAGCGCCAACGUCCUCAACCUCCAAUGCAUCCCACCACAUGAUCAUGCCUGAAGAGCCUUGGUUUUUUG [C12G G110C]	-3.59
GACCAAUCUGCCCUCAGAGCUCGAGAGCAUCUUCGGAUGCAGAGGAGGCAGGCUUCGGUGGCGCGAUAGCGCCAACGUCCUCAACCUCCAAUGCAUCCCUCCACAUGAUGAUGCCUGAAGAGCCUUGGUUUUUUG [A27G A100U]	-3.23
GACCAAUCUGCCCUCAGAGCUCGAGAACAUCUUCGGAUGCAGAGGAGGCAGGCUUCGGUGGCCCGAUAGCGCCAACGUCCUCUACCUCCAAUGCAUCCCACCACAUGAUGAUGCCUGAAGAGCCUUGGUUUUUUG [G63C A83U]	-1.48
GACCAAUCUGUCCUCAGAGCUCGAGAACAUCUUCGGAUGCAGAGGAGGCAGGCUUCGGUGGCGCGAUAGCUCCAACGUCCUCAACCUCCAAUGCAUCCCACCACAUGAUGAUGCCUGAAGAGCCUUGGUUUCUUG [C11U G71U U132C]	-0.794
GACCAAUCUGCCAUCAGAGCUCGAGAACAUCUUCGGAUGUAGAGGAGGCAGGCUUCGGUGGCGCGAUAGCGUCAACGUCCUCAACCUCCAAUGCAUCCCACCACAUGAUGAUGCCUGAAGAGCCUUGGUUUUUUG [C13A C40U C72U]	-2.43
GACCAAUCUGCCCUCAGAGUUCGAGAACAUCUUCGGAUGCAGAGGAGGCUGGCUGCGGUGGCGCGAUAGCGCCAAUGUCCUCAACCUCCAAUGCAUCCCACCACAUGAUGACGCCUGAAGAGCCUUAGUUUUUUG [C20U A50U U55G C76U U112C G127A]	-4.02
GACCAAUCUGCCCACAGAGCUCGAGAACAUCUUCGGAUGCAGAGGAGGCAGGCUUCGGUGGCGCGAUAGCGCCAACGUCCUCAACCUCCAAUGCAUCCCACCACAUGAUGAUGCCUGAAGAGCAUUGGUAUUUUG [U14A C124A U130A]	0.939
GACCCAUCUGCCCUCAGAGCUCGAGAACAUCUUCGGAUGCAGAGGAGGCAGGCUUCGGUGGCGCGAUAGCGCCAACGUCCUUAGCCUCCAAUGCAUCCCACCACAUGAUGAAGCCUGAAGAGCCUUGGUUUUUUG [A5C C82U A84G U112A]	-1.06
